For assay [1], the target named is T1, human A33 antigen, full length, on cells (human, UniProt Q99795 22-319).
T1 construct: CHO cells transfected with full length A33 cDNA (A33-CHO), or endogenous antigen of LS174T (colon) and AsPC-1 (pancreatic) tumour cells; The cell line is named under assay; also called A33-CHO; A33 antigen on LS174T cells
T1 sequence: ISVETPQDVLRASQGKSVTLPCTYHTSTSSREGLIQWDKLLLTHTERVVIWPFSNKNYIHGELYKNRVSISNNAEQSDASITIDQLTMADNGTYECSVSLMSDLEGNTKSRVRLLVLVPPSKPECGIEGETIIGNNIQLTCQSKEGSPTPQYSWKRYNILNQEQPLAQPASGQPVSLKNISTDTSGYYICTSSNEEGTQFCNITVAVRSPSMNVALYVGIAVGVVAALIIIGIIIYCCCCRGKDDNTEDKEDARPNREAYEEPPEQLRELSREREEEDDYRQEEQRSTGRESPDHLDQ
As to the kind of experiment: IHC on LS174T FFPE sections, 20ug/mL, repeat result.

Assay [2] deals with T1, human A33 antigen, full length, on cells. Kind of assay: flow cytometry, LS-174T cells.
Assay [3] has the same target. As to the kind of experiment: flow cytometry, AsPC-1 cells (first AsPC-1 column).
Assay [4] addresses T2, human recombinant A33 antigen (human, UniProt Q99795 22-235).
T2 construct: also called rH-GPA33; rHGPA33
T2 sequence: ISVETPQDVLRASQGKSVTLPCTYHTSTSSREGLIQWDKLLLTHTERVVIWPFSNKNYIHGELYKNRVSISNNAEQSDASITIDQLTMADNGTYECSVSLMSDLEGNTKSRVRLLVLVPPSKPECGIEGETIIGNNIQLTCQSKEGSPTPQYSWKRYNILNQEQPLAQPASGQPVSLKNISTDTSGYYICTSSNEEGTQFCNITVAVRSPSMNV
Kind of assay: rH-GPA33 binding ELISA.

Assay [5] deals with T1, human A33 antigen, full length, on cells. Kind of assay: IHC on LS174T FFPE sections, 20ug/mL, first result.
The target is the same in assay [6]. As to the kind of experiment: flow cytometry on LS174T cells, 0.37ug/mL. As to the method: (§1) Human IgG ELISA, rH-GPA33 Binding ELISA, cell Flow Cytometry (LS174T or AsPAC1), IHC staining (LS174T FFPE, tumor FFPE and Frozen tumor sections) and Coomassie blue staining of SDS-PAGE gel were used for the screening. Antibody in the culture supernatant was purified by Protein A/G purification in the column and dissolved in PBS buffer after three times dialysis. Aliquots of the antibodies were kept at -20° C. for storage.
(§2) Each combination was produced by transient transfection by using Expi293 Expression System Kit (Gibco, cat# A14635). […] Methods of Human IgG ELISA, rH-GPA33 Binding ELISA, LS174T cell Flow Cytometry, IHC staining on LS174T FFPE sections and Coomassie blue staining of SDS-PAGE gel were used for the initial screening.

Assay [7] shares this target. As to the kind of experiment: flow cytometry, AsPC-1 cells (second AsPC-1 column).
In assay [8] the target is T2, human recombinant A33 antigen. As to the kind of experiment: rH-GPA33 binding ELISA, 2ug/mL of 31.1, supernatant. How it is done: as §1, §2
Assay [9] has as its target T1, human A33 antigen, full length, on cells. As to the kind of experiment: flow cytometry, AsPC-1 cells, 5000 ng/ml, experiment 2.
Assay [10] has the same target. Kind of assay: flow cytometry, AsPC-1 cells, 0 ng/ml (background, no antibody), experiment 2.
Assay [11] has the same target. As to the kind of experiment: flow cytometry, AsPC-1 cells, 555.6 ng/ml, experiment 1.
For assay [12] the target is unchanged. Kind of assay: flow cytometry, AsPC-1 cells, 2.3 ng/ml, experiment 1.
Assay [13] shares this target. Kind of assay: flow cytometry, AsPC-1 cells, 6.9 ng/ml, experiment 1.
The target is the same in assay [14]. As to the kind of experiment: flow cytometry, AsPC-1 cells, 185.2 ng/ml, experiment 1.
Assay [15] shares this target. Kind of assay: flow cytometry, AsPC-1 cells, 1666.7 ng/ml, experiment 1.
Assay [16] shares this target. As to the kind of experiment: flow cytometry, AsPC-1 cells, 5000 ng/ml, experiment 1.
For assay [17] the target is unchanged. As to the kind of experiment: flow cytometry, AsPC-1 cells, 0 ng/ml (background, no antibody), experiment 1.
Assay [18] shares this target. Kind of assay: flow cytometry, AsPC-1 cells, 555.6 ng/ml, experiment 2.
For assay [19] the target is unchanged. As to the kind of experiment: flow cytometry, AsPC-1 cells, 1666.7 ng/ml, experiment 2.
Assay [20] shares this target. Kind of assay: IHC on LS174T FFPE sections, 20ug/mL. As to the method: as §1, §2
The target is the same in assay [21]. As to the kind of experiment: flow cytometry, AsPC-1 cells, 185.2 ng/ml, experiment 2.
For assay [22] the target is unchanged. Kind of assay: flow cytometry, AsPC-1 cells, 2.3 ng/ml, experiment 2.
Assay [23] has the same target. As to the kind of experiment: flow cytometry, AsPC-1 cells, 61.7 ng/ml, experiment 2.
Assay [24] has as its target T2, human recombinant A33 antigen. As to the kind of experiment: rH-GPA33 binding ELISA, first round supernatant.
The target in assay [25] is T1, human A33 antigen, full length, on cells. As to the kind of experiment: flow cytometry, AsPC-1 cells, 20.6 ng/ml, experiment 2.
Assay [26] has the same target. As to the kind of experiment: flow cytometry, AsPC-1 cells, 20.6 ng/ml, experiment 1.
Assay [27] has the same target. As to the kind of experiment: flow cytometry, AsPC-1 cells, 61.7 ng/ml, experiment 1.
The target is the same in assay [28]. As to the kind of experiment: flow cytometry, AsPC-1 cells, 6.9 ng/ml, experiment 2.

Positions count from the first letter of the chain named.

B1: humanized 31.1 antibody #5 (abb31.1-HC + cdr31.1-LC) (antibody, human IgG1, kappa, V domains shown)
VH: QIQLVQSGAEVKKPGASVKVSCKASGYTFTNYGMNWVRQAPGKGLEWMGWINTYTGEPTYAQKFQGRVTFTLDTSISTAYMELSRLRSDDTAVYFCARAYYGKYFDYWGQGTTVTVSS
VL: SIVMTQSPSSLSASVGDRVTITCKASQSVSNDVAWYQQKPGQSPKLLIYYASNRYTGVPDRFSGSGYGTDFTLTISSLQPEDFAVYFCQQDYSSPLTFGAGTKLEIKR
notes: Full heavy and light chains; supernatant in the first screen, Protein A/G purified in the second round; also called Sample ID 5; abb-HC + cdr-LC
On to B1, for which the results for the “H-Score of IHC” value in [1] and in [5] were 100 H-Score and 240 H-Score, respectively. Moreover, the EC50 in assay [2] was 0.0625 µg/mL; in [3] it was 0.235 µg/mL; in assay [4], 0.396 µg/mL; in assay [7], 0.122 µg/mL. Moreover, in assay [6], the MFI was found to be 804 MFI. Also, the “OD Value of rH-GPA33 Binding ELISA” value in assay [8] came out at 0.85 OD.

B2: H31.1 #5-biotin (antibody, human IgG1, kappa, V domains shown)
VH: B1 VH
VL: B1 VL
modifications: biotinylated antibody, sites not stated
notes: Biotinylated form of antibody #5; also called biotinylated #5; biotinylated h31.1 #5
In the case of B2, the EC50 in assay [3] worked out at 0.408 µg/mL; in assay [4], 0.679 µg/mL.

B3: H31.1 #6-biotin (antibody, human IgG1, kappa, V domains shown)
VH: B1 VH
VL: B1 VL with V3Q, K24R, T56S
modifications: biotinylated antibody, sites not stated
notes: Biotinylated form of antibody #6; also called biotinylated #6; biotinylated h31.1 #6
B3: the EC50 in assay [3] is 0.368 µg/mL; in assay [4], 12.8 µg/mL.

B4: humanized 31.1 antibody #11 (sdr31.1-HC + sdr31.1-LC) (antibody, human IgG1, kappa, V domains shown)
VH: B1 VH with T53P
VL: B1 VL with V3Q, K24R, V29I, V33L
notes: Full heavy and light chains; supernatant in the first screen, Protein A/G purified in the third round; used as negative control; also called Sample ID 11; sdr-HC + sdr-LC
With B4, the MFI in assay [9] was 117 MFI; in assay [10] it was 3.6 MFI; in [11] it was 16.2 MFI; in assay [12], 3.4 MFI; in assay [13] it was 3.6 MFI; in assay [14], 8.2 MFI. For the same molecule, the MFI in assay [15] was found to be 38.9 MFI; in assay [16], 117 MFI; in assay [17], 3.6 MFI; in [18], 16.6 MFI; in [19], 39 MFI; in assay [21], 8.2 MFI. For the same molecule, the MFI in assay [22] stood at 3.5 MFI; in [23], 5.3 MFI; in assay [25], 4 MFI; in assay [6] it was 5.6 MFI; in [26] it was 4 MFI; in [27], 5.9 MFI. In assay [28], this molecule had an MFI of 3.6 MFI. The molecule also registered a H-Score of IHC in [20] of 160 H-Score. The binding result in [24] is “no binding”. Further, the “OD Value of rH-GPA33 Binding ELISA” value in assay [8] stood at 0.06 OD.

B5: humanized 31.1 antibody #6 (abb31.1-HC + abb31.1-LC) (antibody, human IgG1, kappa, V domains shown)
VH: B1 VH
VL: B1 VL with V3Q, K24R, T56S
notes: Full heavy and light chains; supernatant in the first screen, Protein A/G purified in the second round; also called Sample ID 6; abb-HC + abb-LC
Consider B5, for which the “H-Score of IHC” value amounted to 240 H-Score in assay [1] and 230 H-Score in [5]. Besides, the EC50 in assay [2] worked out at 0.0809 µg/mL; in assay [3] it was 0.276 µg/mL; in [4] it was 1.23 µg/mL; in [7], 0.152 µg/mL. Besides, in assay [6], the MFI came out at 628 MFI. Further, the “OD Value of rH-GPA33 Binding ELISA” value in [8] came out at 0.74 OD.

The values above are taken from patent US20230295298A1 (PRECISION BIOLOGICS, published 2023).
